Experimental data reported in patent publication US20140056903A1 (Regeneron, published 2014).

T1: human GFRα2 expressed with a C-terminal human Fc tag and a hexahistidine tag (human, UniProt O00451 22-441, limits assumed)
T1 construct: bought protein; also called hGFRα2-hFc-6His; hGFRα2-hFc-6his
T1 sequence (looked up): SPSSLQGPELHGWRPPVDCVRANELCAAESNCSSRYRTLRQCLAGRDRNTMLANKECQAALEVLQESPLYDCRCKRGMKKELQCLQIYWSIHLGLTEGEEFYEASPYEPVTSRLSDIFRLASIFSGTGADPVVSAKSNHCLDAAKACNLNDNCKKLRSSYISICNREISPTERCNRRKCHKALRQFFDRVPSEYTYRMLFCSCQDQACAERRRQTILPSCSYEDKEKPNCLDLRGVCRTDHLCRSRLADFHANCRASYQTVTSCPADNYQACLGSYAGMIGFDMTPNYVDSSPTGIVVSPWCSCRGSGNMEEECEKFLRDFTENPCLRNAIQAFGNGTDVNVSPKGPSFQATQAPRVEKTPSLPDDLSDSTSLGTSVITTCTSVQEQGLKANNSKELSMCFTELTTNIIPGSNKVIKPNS

T2: human GFRα1 expressed with a C-terminal human Fc tag and a hexahistidine tag (human, UniProt P56159 25-429, limits assumed)
T2 construct: bought protein; also called hGFRα1-hFc-6His; hGFRα1-hFc-6his
T2 sequence (looked up): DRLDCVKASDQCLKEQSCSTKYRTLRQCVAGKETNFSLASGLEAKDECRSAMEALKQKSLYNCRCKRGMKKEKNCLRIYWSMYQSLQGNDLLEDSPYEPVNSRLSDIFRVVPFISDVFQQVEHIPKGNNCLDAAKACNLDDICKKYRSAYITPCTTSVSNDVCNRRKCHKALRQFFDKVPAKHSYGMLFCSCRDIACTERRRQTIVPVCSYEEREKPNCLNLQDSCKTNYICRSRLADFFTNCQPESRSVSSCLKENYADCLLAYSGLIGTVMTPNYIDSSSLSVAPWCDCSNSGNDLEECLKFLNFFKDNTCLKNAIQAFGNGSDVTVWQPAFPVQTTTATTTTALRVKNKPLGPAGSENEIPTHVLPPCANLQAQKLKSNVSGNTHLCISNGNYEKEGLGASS

B1: H4H2350P (antibody, human IgG4, V domains shown)
VH: QVQLQESGPGLVKPSETLSLTCTVSGGSISTYYWSWFRQPPGKGLEWIGYIYYSGSTNHNPSLKSRVTISVDTSKNQFSLKLRSVTAADTAVYYCARVGPVGWGSWGNFDYWGQGTLVTVSS
VL: DIQLTQSPSFLSASVGDRVTITCWASQGISSYLAWSQQKPGKAPKLLIYAASTLQSGVPSRFSGSGSGTEFTLTISSLQPEDFATYYCQQLNSYPWTFGQGTKVEIK
notes: human IgG4 Fc (H4H)
B2: H4H2342P (antibody, human IgG4, V domains shown)
VH: EVQLLESGGGLVQPGGSLRLSCAASGFTFSTYAMSWVRQAPGKGLEWVSAIRGNGVNTYYGDSMKGRFTISRDNSKDTLYLQMNSLRAEDTAVYYCAKNKWELLVFEYWGQGTLVTVSS
VL: DIQMTQSPSSLSASVGDRVTITCRASQDISNYLAWYQQKPGKVPKLLIYAASTLQSGVPFRFSGSGSGTDFTLTISSLQPEDVATYYCQKYNSAPPFGPGTKVDIK
notes: human IgG4 Fc (H4H)
B3: H4H2243N2 (antibody, human IgG4, V domains shown)
VH: QVQLVQSGAEVKKPGASVKVSCKASGYTFTSYGIIWVRQAPGQGLEWMGWISGYNGNTNYAQNLQGRVTMTTDTSTTTAYMELRSLRSDDTAVYYCARWGIATRPYYYYGMDVWGQGTTVTVSS
VL: DIQMTQSPSSLSASVGDRVTITCRASQDITNYLAWFQQKPGKAPKSLIYAASSLQSGVPSKFSGSGSGTDFTLTISSLQPEDFATYYCQQYNSYPPTFGPGTKVDIK
notes: human IgG4 Fc (H4H)
B4: H4H2344S (antibody, human IgG4, V domains shown)
VH: EVQLVESGGGVVQPGRSLRLSCAASGFSFSDYVMHWVRQAPGKGLEWVASIWFDGSNEFYADSVKGRFTISRDNSKNTLFLQMNSLRAEDTAVYYCAKKGVLVATSAFDIWGQGTMVTVSS
VL: DIQMTQSPSSLSASVGDRVTITCRASQSINNYLNWYHQKPGKAPKLLIYAASSLQSGVPSRFSGSGSGTDYTLTISSLQPEDFGNYYCQQSYRTSMYTFGQGTKVEIK
notes: human IgG4 Fc (H4H)
B5: H4H2354S (antibody, human IgG4, V domains shown)
VH: QVQLVESGGGVVQPGRSLRLSCAASGFSFSDYVMHWVRQAPGKGLEWVASIWFDGSNEFYADSVKGRFTISRDNSKNTLFLQMNSLRAEDTAVYYCAKKGVLVATSAFDIWGQGTMVTVSS
VL: DIQLTQSPSSLSASVGDRVTITCRASQSINNYLNWYHQKPGKAPKLLIYAASSLQSGVPSRFSGSGSGTDYTLTISSLQPEDFGNYYCQQSYRTSMYTFGQGTKVEIK
notes: human IgG4 Fc (H4H); also called H4H2354S-1
B6: H4H2293P (antibody, human IgG4, V domains shown)
VH: QVQLVESGGGVVQPGRSLRLSCAASGFSFSDYVMHWVRQAPGKGLEWVASIWFDGSNELYADSVKGRFTISRDNSKNTLFLQMNSLRAEDTAVYYCAKKGVLVATSAFHIWGQGTMVTVSS
VL: AIQMTQSPSSLSASVGDRVTITCRASQNINNYLNWYHQKPGKAPNLLIYAASSLQSGVPSRFSGSGSGTDYTLTISSLQPEDFGNYYCQQSYSTSMYTFGQGTKLEIK
notes: human IgG4 Fc (H4H)
B7: H4H2346S (antibody, human IgG4, V domains shown)
VH: QVQLVESGGGVVQPGRSLRLSCAASGFSFSDYVMHWVRQAPGKGLEWVASIWFDGSNEFYADSVKGRFTISRDNSKNTLFLQMNSLRAEDTAVYYCAKKGVLVATSAFDIWGQGTMVTVSS
VL: EIVMTQSPSSLSASVGDRVTITCRASQSINNYLNWYHQKPGKAPKLLIYAASSLQSGVPSRFSGSGSGTDYTLTISSLQPEDFGNYYCQQSYRTSMYTFGQGTKVEIK
notes: human IgG4 Fc (H4H)
B8: H4H2294S (antibody, human IgG4, V domains shown)
VH: EVQLVESGGGLVQPGGSLRLSCAASGFTFSSYAMSWVRQAPGKGLEWVSVISGSGGSTYYADAVKGRFTISRDNSKHTLYLQMNSLRAEDTAVYYCTKPSSYSSSNFYYGMDVWGQGSTVTVSS
VL: DIQLTQSPSSVSASVGDRVTITCRASQGISSWLAWYQQKPGKAPKLLIYAASSLQSGVPSRFSGSGSGTDFTLTISSLQPEDFATYYCQQTNSFPFPFGPGTKVDIK
notes: human IgG4 Fc (H4H)
B9: H4H2212N (antibody, human IgG4, V domains shown)
VH: EVQLLESGGGLVQPGGSLRLSCAASGFTFSSYAMSWVRQGPGKGLEWVSGISGSGGSTYNADSVKGRFTISRDNSKNTLYLQMNSLRAEDTAVYYCAKDSGTYWYYFDYWGQGILVTVSS
VL: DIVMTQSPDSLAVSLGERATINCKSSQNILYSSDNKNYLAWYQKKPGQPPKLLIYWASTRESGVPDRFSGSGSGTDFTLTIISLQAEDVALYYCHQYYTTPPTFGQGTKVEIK
notes: human IgG4 Fc (H4H)

Assays:
[1] = target: T3, human GFRα3 expressed with a C-terminal hFc tag (human); assay: blocking ELISA 1, hGFRα3-hFc to coated hARTEMIN-mmH
T3 construct: also called hGFRα3-hFc
T3 sequence (chain, as listed by the source limits assumed): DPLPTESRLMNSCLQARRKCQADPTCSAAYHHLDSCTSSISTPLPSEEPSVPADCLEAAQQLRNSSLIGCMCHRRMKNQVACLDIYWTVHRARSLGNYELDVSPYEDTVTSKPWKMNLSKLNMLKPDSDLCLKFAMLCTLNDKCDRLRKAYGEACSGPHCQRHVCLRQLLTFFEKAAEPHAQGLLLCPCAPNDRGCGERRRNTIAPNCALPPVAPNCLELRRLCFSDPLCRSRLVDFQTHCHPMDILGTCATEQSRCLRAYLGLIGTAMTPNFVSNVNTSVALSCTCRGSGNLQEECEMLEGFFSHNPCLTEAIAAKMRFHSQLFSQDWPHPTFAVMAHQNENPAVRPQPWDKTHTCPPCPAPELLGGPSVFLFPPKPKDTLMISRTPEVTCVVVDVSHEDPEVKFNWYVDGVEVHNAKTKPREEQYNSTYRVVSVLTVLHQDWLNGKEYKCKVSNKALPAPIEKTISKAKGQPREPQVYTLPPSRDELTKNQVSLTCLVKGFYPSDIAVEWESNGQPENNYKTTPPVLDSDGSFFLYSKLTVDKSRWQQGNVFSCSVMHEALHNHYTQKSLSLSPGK
Method: A constant amount of human GFRα3 fused with a C-terminal human Fc tag (hGFRα3-hFc; SEQ ID:371) at 120 pM was pre-mixed with varying amounts of antibodies, ranging from 0 to ˜10 nM in serial dilutions, followed by an 1 hour incubation at room temperature (RT) to allow antibody-hGFRα3-hFc binding to reach equilibrium. The equilibrated sample solutions were then transferred to the hARTEMIN-mmH-coated plate. […] Absorbance was recorded at 450 nm on a Victor X5 plate reader (Perkin Elmer) to determine the amount of free hGFRα3-hFc in the pre-equilibrated hGFRα3-hFc-antibody solutions that was able to bind to the plate coated with hARTEMIN-mmH. IC₅₀ values, defined as the concentration of antibody required to reduce the signal from a constant concentration of hGFRα3-hFc by 50%, were calculated from the data using Prism software from GraphPad. The absorbance measured at the constant amount of 120 pM hGFRα3-hFc in the absence of anti-GFRα3 antibody is defined as 0% blocking and the absorbance with no added hGFRα3-hFc is defined as 100% blocking. The observed absorbance in the wells containing the highest antibody concentration was used to calculate the maximum blocking percent shown in the table.

[2] = target: T1, human GFRα2 expressed with a C-terminal …; assay: BLI Octet, antigen captured on anti-hFc tips
Method: (§1) The ability of anti-GFRα3 antibodies to bind to GDNF-family receptors was assessed using an Octet Red biosensor (Fortebio, Inc.). Antibodies were tested for binding to either human GFRα1 expressed with a C-terminal human Fc tag and a hexahistidine tag (hGFRα1-hFc-6His, R&D Systems #714-GR), human GFRα1 expressed with only a C-terminal human Fc tag (hGFRα1-hFc; SEQ ID: 376), human GFRα2 expressed with a C-terminal human Fc tag and a hexahistidine tag (hGFRα2-hFc-6His, R&D Systems #613-FR), human GFRα3 expressed with a C-terminal human Fc tag (hGFRα3-hFc, SEQ ID:371), or an irrelevant human Fc tagged protein. Antigens were captured onto anti-human Fc sensor tips from 10 ug/mL solutions for 5 minutes. The coated sensor tips were then blocked with a 100 ug/mL solution of irrelevant human Fc antibodies for 5 minutes. Blocked sensor tips were then submerged into wells containing […] of each anti-GFRα3 antibody or buffer alone for 10 minutes. The experiment was performed at 25° C. with a flow rate of 1000 rpm using HBST+BSA buffer (10 mM HEPES, 150 mM NaCl, 3 mM EDTA, 0.05% w/v Surfactant P20, 0.1 mg/mL BSA, pH 7.4). The binding response (measured in units of nm) at each step of the experiment was monitored and recorded.

[3] = target: T4, human GFRα1 expressed with only a C-terminal human Fc tag (human); assay: BLI Octet, antigen captured on anti-hFc tips
T4 construct: also called hGFRα1-hFc
Method: as §1

[4] = target: T3, human GFRα3 expressed with a C-terminal …; assay: BLI Octet, antigen on anti-hFc tips, 100 ug/mL Ab
Method: as §1

[5] = target: T1, human GFRα2 expressed with a C-terminal …; assay: BLI Octet, antigen on anti-hFc tips, 100 ug/mL Ab
Method: as §1

[6] = target: T2, human GFRα1 expressed with a C-terminal …; assay: BLI Octet, antigen on anti-hFc tips, 100 ug/mL Ab
Method: as §1

[7] = target: T4, human GFRα1 expressed with only a …; assay: BLI Octet, antigen on anti-hFc tips, 100 ug/mL Ab
Method: as §1

[8] = target: T5, irrelevant human Fc tagged protein; assay: BLI Octet, antigen on anti-hFc tips, 100 ug/mL Ab
T5 construct: negative control antigen; also called Irrelevant hFc tagged protein
Method: as §1

Binder | % max blocking [1] [%] | IC50 [1] [nM] | binding result [2] | binding result [3] | Bound (nm) [4] [nm] | Bound (nm) [5] [nm] | Bound (nm) [6] [nm] | Bound (nm) [7] [nm] | Bound (nm) [8] [nm]
B1 | 93 | 0.496 | – | – | – | – | – | – | –
B2 | – | – | no binding (tested: 100 ug/mL) | no binding (tested: 100 ug/mL) | 1.59 | 0.12 | 0.08 | 0.06 | 0.07
B3 | – | – | no binding (tested: 100 ug/mL) | no binding (tested: 100 ug/mL) | 1.11 | 0.06 | 0.03 | 0.03 | 0.03
B4 | 94 | 0.133 | – | – | – | – | – | – | –
B5 | 92 | 0.116 | – | – | – | – | – | – | –
B6 | 93 | 0.26 | – | – | – | – | – | – | –
B7 | 92 | 0.0978 | – | – | – | – | – | – | –
B8 | – | – | no binding (tested: 100 ug/mL) | no binding (tested: 100 ug/mL) | 1.17 | 0.06 | 0.03 | 0.04 | 0.03
B9 | 81 | 0.0438 | no binding (tested: 100 ug/mL) | no binding (tested: 100 ug/mL) | 1.18 | 0.02 | -0.01 | 0 | 0
